Molecular target: soluble WT SARS-CoV-2 spike trimer protein (SARS-CoV-2, wild-type (NC_045512), UniProt P0DTC2)
Assay: ELISA

Row | Binder | binding result
1 | COV2-2490 (antibody, V domains shown) VH: EVQLVESGGGLVQPGGSLRLSCAASGFTFSSYWMNWVRQAPGKGLEWVANINQDGGEKYYVDSVRGRFTISRDNAKNSLYLQMNSLRAEDTAVYYCARDPYDLYGDYGGTFDYWGQGTLVTVSS VL: not shown | binds
2 | 8D2 (antibody, V domains shown) VH: EVQLVESGGGLVQPGGSLRLSCAASGFTFSSYWMSWVRQAPGKGLEWVANINQDGSEKYYVDSVKGRFTISRDNAKNSLYLQVNSLRAEDTAVYYCARDWDYDILTGSWFGAFDIWGQGTTVTVSS VL: DIQMTQSPSSLSASVGDRVTITCRASQGIRNDLGWYQQKPGKAPKRLIYAASSLQSGVPSRFSGSGSGTEFTLTISSLQPEDFATYYCLQHNSYPLTFGGGTKVEIK | binds

Reference: publication PMC11849304 (Virology Journal, 2025)
